We go through 5 substances from PMC4504005, “Structural Basis for Receptor Activity-Modifying Protein-Dependent Selective Peptide Recognition by a G Protein-Coupled Receptor” (Molecular cell, 2015).

The target of experiment [1] is MBP-RAMP2 ECD [L106R]-(GSA)3-CLR ECD-H6 tethered fusion protein (UniProt O60895). Kind of experiment: AlphaScreen or HTRF; competition assay: purified tethered receptor ECD fusion protein with biotin-CGRP or biotin-AM (100 nM each in Figure 6), unlabelled competitor peptide varied; apparent affinities.
In experiment [2] the target is MBP-RAMP1 ECD-(GSA)3-CLR ECD-H6 tethered fusion protein (UniProt O60894). The experiment is described as above.

Values joined by “and” are separate entries in the source; they are usually repeats but may differ in a detail not shown here. Equal values may be shown once.

On to AM(22–52)NH2 (peptide), for which, in experiment [1], the IC50 was in the range of 5 to 15 µM; the pIC50 is 4.92 and 4.84.
Consider AM(37–52)NH2 (peptide), for which the pIC50 in experiment [1] is 5.
Consider CGRP(8–37)NH2 (peptide), for which, in experiment [2], the concentration for half-maximal inhibition (IC50) is 2000 nM and the pIC50 worked out at 5.01.
As to “CGRP(27–37)NH2 [D31, P34, F35] (peptide)”, in experiment [2], the IC50 was determined as 460 nM and the pIC50 stood at 6.79.
With CGRPmut [F37Y] (peptide), the negative-log IC50 (pIC50) in experiment [1] is 4.79; in experiment [2] it was 6.24.
